Values of other authors in article PMC3100173.

Molecular target: OmpF (Escherichia coli) (UniProt P02931)
UniProt P02931, sequence (P02931 23-362): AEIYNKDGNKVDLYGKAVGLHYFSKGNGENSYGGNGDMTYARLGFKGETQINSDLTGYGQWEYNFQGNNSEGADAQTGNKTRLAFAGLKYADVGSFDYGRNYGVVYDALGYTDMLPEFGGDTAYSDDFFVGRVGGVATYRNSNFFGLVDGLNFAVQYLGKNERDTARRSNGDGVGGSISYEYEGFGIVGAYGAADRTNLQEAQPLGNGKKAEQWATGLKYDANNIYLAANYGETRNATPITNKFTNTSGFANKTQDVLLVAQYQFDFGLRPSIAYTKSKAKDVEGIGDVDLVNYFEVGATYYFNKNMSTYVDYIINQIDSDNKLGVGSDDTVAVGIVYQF

Substance: Colicin N (from UniProt P08083)
- Kd: 200 µM
